The results in this text go back to US20180185510A1, “ANTIBODY DRUG CONJUGATES OF KINESIN SPINDEL PROTEIN (KSP) INHIBITORS WITH ANTI-B7H3-ANTIBODIES” (BAYER PHARMA AKTIENGESELLSCHAFT, priority 2015, published 2018).

A word on the IC50: it is the concentration needed to halve the response being measured.

The chains are these.
T1: B7H3 on B7H3-positive human tumour cells (A498, MCF-7, Caki-2, 786-0) (human, UniProt Q5ZPR3 29-534)
T1 sequence (looked up): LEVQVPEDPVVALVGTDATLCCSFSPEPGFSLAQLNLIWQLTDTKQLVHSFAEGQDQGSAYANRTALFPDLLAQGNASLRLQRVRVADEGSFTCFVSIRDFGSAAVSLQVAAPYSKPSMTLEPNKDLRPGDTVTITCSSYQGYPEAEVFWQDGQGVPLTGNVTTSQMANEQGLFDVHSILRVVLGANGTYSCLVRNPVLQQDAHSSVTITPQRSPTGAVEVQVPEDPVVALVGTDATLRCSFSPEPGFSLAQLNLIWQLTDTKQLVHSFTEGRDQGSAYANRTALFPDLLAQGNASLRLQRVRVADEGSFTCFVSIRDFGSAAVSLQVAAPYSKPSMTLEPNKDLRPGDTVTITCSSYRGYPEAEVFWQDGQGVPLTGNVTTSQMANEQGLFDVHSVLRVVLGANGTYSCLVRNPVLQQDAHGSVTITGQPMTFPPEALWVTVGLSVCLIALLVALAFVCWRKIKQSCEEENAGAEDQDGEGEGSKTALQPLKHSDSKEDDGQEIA

B1: Example 173L1: anti-B7H3 AK1A (TPP-3803) coupled with Intermediate F173 (antibody, human IgG1, kappa, V domains shown)
VH: QVKLQQSGAELVKPGASVKLSCKASGYTFTNYDINWVRQRPEQGLEWIGWIFPGDGSTQYNEKFKGKATLTTDTSSSTAYMQLSRLTSEDSAVYFCARQTTATWFAYWGQGTTVTVSS
VL: DIELTQSPTTLSVTPGDRVSLSCRASQSISDYLHWYQQKSHESPRLLIKYASQSISGIPSRFSGSGSGSDFTLSINSVEPEDVGVYYCQNGHSFPLTFGAGTKLELKR
modifications: KSP inhibitor-linker (Intermediate F173) on cysteine residues of the partially reduced antibody, sites not given; drug/mAb ratio 3.4
B2: Example 274L1: anti-B7H3 AK1A (TPP-3803) coupled with Intermediate F274 (antibody, human IgG1, kappa, V domains shown)
VH: B1 VH
VL: B1 VL
modifications: KSP inhibitor-linker (Intermediate F274) on cysteine residues of the partially reduced antibody, sites not given; drug/mAb ratio 2.9
B3: Example 194: anti-B7H3 AK1A (TPP-3803) coupled with Intermediate F194 (antibody, human IgG1, kappa, V domains shown)
VH: B1 VH
VL: B1 VL
modifications: KSP inhibitor-linker (Intermediate F194) on lysine residues, sites not given; drug/mAb ratio 2.4
B4: Example 257L1: anti-B7H3 AK1A (TPP-3803) coupled with Intermediate F257 (antibody, human IgG1, kappa, V domains shown)
VH: B1 VH
VL: B1 VL
modifications: KSP inhibitor-linker (Intermediate F257) on cysteine residues of the partially reduced antibody, sites not given; drug/mAb ratio 2.4
B5: Example 297L1 (Isomer 1): anti-B7H3 AK1A (TPP-3803) coupled with Intermediate F297 (antibody, human IgG1, kappa, V domains shown)
VH: B1 VH
VL: B1 VL
modifications: KSP inhibitor-linker (Intermediate F297) on cysteine residues of the partially reduced antibody, sites not given; drug/mAb ratio 2.4
B6: Example 270L1: anti-B7H3 AK1A (TPP-3803) coupled with Intermediate F270 (antibody, human IgG1, kappa, V domains shown)
VH: B1 VH
VL: B1 VL
modifications: KSP inhibitor-linker (Intermediate F270) on cysteine residues of the partially reduced antibody, sites not given; drug/mAb ratio 2.8
B7: Example 259L1: anti-B7H3 AK1A (TPP-3803) coupled with Intermediate F259 (antibody, human IgG1, kappa, V domains shown)
VH: B1 VH
VL: B1 VL
modifications: KSP inhibitor-linker (Intermediate F259) on cysteine residues of the partially reduced antibody, sites not given; drug/mAb ratio 3.0
B8: Example 240L1: anti-B7H3 AK1A (TPP-3803) coupled with Intermediate F240 (antibody, human IgG1, kappa, V domains shown)
VH: B1 VH
VL: B1 VL
modifications: KSP inhibitor-linker (Intermediate F240) on cysteine residues of the partially reduced antibody, sites not given; drug/mAb ratio 2.7
B9: Example 257L2: anti-B7H3 AK1B (TPP-5706) coupled with Intermediate F257 (antibody, human IgG1, kappa, V domains shown)
VH: QVQLQQPGAELVKPGASVKMSCKASGYTFTIYNVHWIKQTPGQGLEWMGTIFPGNGDTSYNQKFKDKATLTTDKSSKTAYMQLNSLTSEDSAVYYCARWDDGNVGFAHWGQGTLVTVSA
VL: DIQMTQSPASLSASVGETVTITCRASENINNYLTWFQQKQGKSPQLLVYHAKTLAEGVPSRFSGSGSGTQFSLKINSLQPEDFGSYYCQHHYGTPPTFGGGTKLEIKR
modifications: KSP inhibitor-linker (Intermediate F257) on cysteine residues of the partially reduced antibody, sites not given; drug/mAb ratio 4.5
B10: Example 208L2: anti-B7H3 AK1B (TPP-5706) coupled with Intermediate F104 (stirred at pH 8 overnight) (antibody, human IgG1, kappa, V domains shown)
VH: B9 VH
VL: B9 VL
modifications: KSP inhibitor-linker (Intermediate F104) on cysteine residues of the partially reduced antibody, sites not given; drug/mAb ratio 2.9
B11: Example 284L2: anti-B7H3 AK1B (TPP-5706) coupled with Intermediate F284 (antibody, human IgG1, kappa, V domains shown)
VH: B9 VH
VL: B9 VL
modifications: KSP inhibitor-linker (Intermediate F284) on cysteine residues of the partially reduced antibody, sites not given; drug/mAb ratio 3.0
B12: Example 194L2: anti-B7H3 AK1B (TPP-5706) coupled with Intermediate F194 (antibody, human IgG1, kappa, V domains shown)
VH: B9 VH
VL: B9 VL
modifications: KSP inhibitor-linker (Intermediate F194) on lysine residues, sites not given; drug/mAb ratio 2.9
B13: Example 281L2: anti-B7H3 AK1B (TPP-5706) coupled with Intermediate F281 (antibody, human IgG1, kappa, V domains shown)
VH: B9 VH
VL: B9 VL
modifications: KSP inhibitor-linker (Intermediate F281) on cysteine residues of the partially reduced antibody, sites not given; drug/mAb ratio 2.4
B14: Example 296L2: anti-B7H3 AK1B (TPP-5706) coupled with Intermediate F296 (antibody, human IgG1, kappa, V domains shown)
VH: B9 VH
VL: B9 VL
modifications: KSP inhibitor-linker (Intermediate F296) on cysteine residues of the partially reduced antibody, sites not given; drug/mAb ratio 3.2
B15: Example 297L2 (Isomer 1): anti-B7H3 AK1B (TPP-5706) coupled with Intermediate F297 (antibody, human IgG1, kappa, V domains shown)
VH: B9 VH
VL: B9 VL
modifications: KSP inhibitor-linker (Intermediate F297) on cysteine residues of the partially reduced antibody, sites not given; drug/mAb ratio 3.1
B16: Example 275L2: anti-B7H3 AK1B (TPP-5706) coupled with Intermediate F275 (antibody, human IgG1, kappa, V domains shown)
VH: B9 VH
VL: B9 VL
modifications: KSP inhibitor-linker (Intermediate F275) on cysteine residues of the partially reduced antibody, sites not given; drug/mAb ratio 3.8
B17: Example 240L2: anti-B7H3 AK1B (TPP-5706) coupled with Intermediate F240 (antibody, human IgG1, kappa, V domains shown)
VH: B9 VH
VL: B9 VL
modifications: KSP inhibitor-linker (Intermediate F240) on cysteine residues of the partially reduced antibody, sites not given; drug/mAb ratio 3.5

Values joined by “and” are separate entries in the source; they are usually repeats but may differ in a detail not shown here. Equal entries are not always repeated.

The target of one experiment is T1, B7H3 on B7H3-positive human tumour …. Briefly: cell-based or functional assay.
Details: not given
Consider B1, for which the “IC50 [M] CTG, A498 cells (B7H3-positive)” value was 6e-07 M and the “IC50 [M] CTG, MCF-7 cells (B7H3-positive)” value (“IC50 [M] CTG, MCF-7 cells” for short) worked out at 4.98e-09 M.

For B2, the “IC50 [M] CTG, MCF-7 cells” value stood at 1.86e-09 M.

On to B3, for which the “IC50 [M] CTG, MCF-7 cells” value is 6.43e-10 M.

Turning to B4, the “IC50 [M] CTG, MCF-7 cells” value was determined as 4.49e-10 M.

With B5, the “IC50 [M] CTG, MCF-7 cells” value came out at 8.93e-09 M.

With B6, the “IC50 [M] CTG, A498 cells (B7H3-positive)” value stood at 6e-07 M and the “IC50 [M] CTG, MCF-7 cells” value stood at 7e-08 M.

B7: the “IC50 [M] CTG, MCF-7 cells” value was 4.57e-09 M.

On to B8, for which the “IC50 [M] CTG, A498 cells (B7H3-positive)” value was 2.35e-09 M and the “IC50 [M] CTG, MCF-7 cells” value came to 7.25e-10 M.

As to B9, the “IC50 [M] CTG, A498 cells (B7H3-positive)” value was 1.16e-10 M and 1.37e-10 M; the “IC50 [M] CTG, Caki-2 cells (B7H3-positive)” value (“IC50 [M] CTG, Caki-2 cells” below) is 1.5e-11 M and < 3e-11 M; the “IC50 [M] CTG, MCF-7 cells” value is 7.37e-11 M and 8.63e-11 M.

In the case of B10, the “IC50 [M] CTG, Caki-2 cells” value came out at 5.99e-09 M and the “IC50 [M] CTG, MCF-7 cells” value was 2.42e-10 M.

B11: the “IC50 [M] CTG, MCF-7 cells” value was determined as 7.02e-10 M.

Consider B12, for which the “IC50 [M] CTG, A498 cells (B7H3-positive)” value was determined as 3.57e-10 M; the “IC50 [M] CTG, Caki-2 cells” value was determined as 2.75e-10 M; the “IC50 [M] CTG, MCF-7 cells” value was determined as 2.08e-10 M.

In the case of B13, the “IC50 [M] CTG, A498 cells (B7H3-positive)” value is 1.39e-08 M; the “IC50 [M] CTG, Caki-2 cells” value amounted to 5.26e-09 M; the “IC50 [M] CTG, MCF-7 cells” value was 3.42e-08 M.

Turning to B14, the “IC50 [M] CTG, A498 cells (B7H3-positive)” value was 6.22e-10 M; the “IC50 [M] CTG, Caki-2 cells” value was above 3e-07 M; the “IC50 [M] CTG, MCF-7 cells” value was found to be 1.63e-10 M.

Regarding B15, the “IC50 [M] CTG, A498 cells (B7H3-positive)” value is above 3e-07 M; the “IC50 [M] CTG, Caki-2 cells” value is above 3e-07 M; the “IC50 [M] CTG, MCF-7 cells” value turned out to be 7.56e-10 M.

B16: the “IC50 [M] CTG, A498 cells (B7H3-positive)” value was above 3e-07 M; the “IC50 [M] CTG, Caki-2 cells” value is above 3e-07 M; the “IC50 [M] CTG, MCF-7 cells” value stood at 9.15e-11 M.

With B17, the “IC50 [M] CTG, A498 cells (B7H3-positive)” value was found to be 7.49e-10 M; the “IC50 [M] CTG, Caki-2 cells” value was above 3e-07 M; the “IC50 [M] CTG, MCF-7 cells” value came to 1.58e-10 M.

The next experiment deals with KPL4. As to the kind of experiment: MTT assay, cytotoxicity of metabolites, KPL4. The format is cell-based. As to conditions: KPL4, 96 h, 96 h incubation. The protocol:
The cells were cultivated according to the standard method using the growth media listed under C-1. The test is carried out by detaching the cells with a solution of Accutase in PBS (Biochrom AG #L2143), pelleting, resuspending in culture medium, counting and sowing into a 96-well culture plate with white bottom (Costar #3610) (NCI H292: 2500 cells/well in a total volume of 100 μl). The cells were then incubated in an incubator at 37° C. and 5% carbon dioxide. After 48 h, the medium was replaced. The metabolites in 10 μl of culture medium in concentrations from 10^−5M to 10^−13M were then pipetted to the cells (in triplicate), and the assay was then incubated in an incubator at 37° C. and 5% carbon dioxide. […] To this end, the MTT reagent was incubated with the cells for 4 h, followed by lysis of the cells overnight by addition of the detergent. The dye formed was detected at 570 nm (Infinite M1000 pro, Tecan). The measured data were used to calculate the IC50 of the growth inhibition using the DRC (dose response curve). The proliferation of cells which were not treated with test substance but were otherwise identically treated was defined as the 100% figure.
(Tetrazolium dyes change colour on reduction, which living cells bring about.)
For `CC(C)(C)[C@H](c1cc(-c2cc(F)ccc2F)cn1Cc1ccccc1)N(CC[C@H](N)C(=O)NCCNC(=O)CSC[C@H](N)C(=O)O)C(=O)CO` [Example M7, S-(2-{[2-({(2S)-2-Amino-4-[{(1R)-1-[1-benzyl-4-(2,5-difluorophenyl)-1H-pyrrol-2-yl]-2,2-dimethylpropyl}(glycoloyl)amino]butanoyl}amino)ethyl]amino}-2-oxoethyl)-L-cysteine/trifluoroacetic acid (1:1)], the IC50 was 92500 pM.

For `CC(C)(C)[C@H](c1cc(-c2cc(F)ccc2F)cn1Cc1ccccc1)N(CC[C@H](N)C(=O)NCCNC(=O)CNC(=O)CC(SC[C@H](N)C(=O)O)C(=O)O)C(=O)CO` (single isomer, unassigned) [Example M14], the IC50 was 182000 pM.

In the case of `CC(C)(C)[C@H](c1cc(-c2cc(F)ccc2F)cn1Cc1ccccc1)N(CC[C@H](N)C(=O)NCCOCCN1C(=O)CC(SC[C@H](N)C(=O)O)C1=O)C(=O)CO` (stereo partly drawn) [Example M4, S-(1-{2-[2-({(2S)-2-Amino-4-[{(1R)-1-[1-benzyl-4-(2,5-difluorophenyl)-1H-pyrrol-2-yl]-2,2-dimethylpropyl}(glycoloyl)amino]butanoyl}amino)ethoxy]ethyl}-2,5-dioxopyrrolidin-3-yl)-L-cysteine/trifluoroacetic acid (1:1)], the 50% inhibitory concentration (IC50) was found to be 176000 pM.

As for `CC(C)(C)[C@H](c1cc(-c2cc(F)ccc2F)cn1Cc1ccccc1)N(CC[C@H](N)C(=O)NCCNC(=O)CNC(=O)CC(SC[C@H](N)C(=O)O)C(=O)O)C(=O)CO` (stereo partly drawn) [Example M13, 4-[(2-{[2-({(2S)-2-Amino-4-[{(1R)-1-[1-benzyl-4-(2,5-difluorophenyl)-1H-pyrrol-2-yl]-2,2-dimethylpropyl}(glycoloyl)amino]butanoyl}amino)ethyl]amino}-2-oxoethyl)amino]-2-{[(2R)-2-amino-2-carboxyethyl]sulphanyl}-4-oxobutanoic acid/trifluoroacetic acid (1:1)], the IC50 was 169000 pM.
